What was measured:
[1] = target: SARS-CoV-2 Delta + T51I + T95I spike protein (authentic virus) (SARS-CoV-2) (UniProt P0DTC2); experiment: cell-based or functional assay
[2] = target: SARS-CoV-2 D614G spike protein (authentic virus) (SARS-CoV-2) (UniProt P0DTC2); experiment: cell-based or functional assay

Substance: cilgavimab (AZD1061) (antibody)
- Authentic Virus Neutralization IC50 [1]: 0.014 µg/mL
- Authentic Virus Neutralization IC50 [2]: 0.066 µg/mL
